Data on 6 molecules can be found in paper PMC9974998, “Structural mechanism for inhibition of PP2A-B56α and oncogenicity by CIP2A” (Nature Communications, 2023).

B1: B56α (recombinant, WT) (natural protein)
chain: not shown
notes: PP2A regulatory subunit B56α; pGEX-B56α WT; also called B56α WT; source: E. coli BL21, purified (glutathione agarose, GST removed with AcTEV); not shown: GST, N-terminal, cleaved

Holding throughout (details): both partners purified
The target in assay [1] is T1, CIP2A(1-560)V5 His (human, UniProt Q8TCG1 1-560).
T1 construct: CIP2A, human, residues 1-560; also called V5-tagged recombinant CIP2A(1-560); source: recombinant
Put plainly: pull-down; competition: GST-BubR1(647-720), B56α and CIP2A(1-560)V5, 10 pmol each, glutathione bead pull-down, B56α on BubR1 by Western blot. For orientation: Immunoblotting shows a protein as a band on a membrane.

Assay [2] concerns the target T2, GST-CIP2A(1-560) (human, UniProt Q8TCG1 1-560).
T2 construct: CIP2A, human, residues 1-560; pGEX vector, thrombin-cleavable N-terminal GST; also called GST-tagged CIP2A(1-560) WT; GST-fused CIP2A(1-560); source: E. coli BL21, purified (glutathione agarose); not shown: GST, N-terminal, kept
Put plainly: pull-down; GST-CIP2A incubated with the pre-assembled PP2A-B56α holoenzyme (A-B56α-PP2Ac), glutathione beads; Coomassie gel and Western blot; CIP2A also titrated against equal molar amounts of PP2A proteins.

For assay [3], the target named is T3, CIP2A(1-560) as used for XL-MS (human, UniProt Q8TCG1 1-560).
T3 construct: CIP2A, human, residues 1-560; source: E. coli BL21, purified (glutathione agarose), dialysed into PBS pH 8, 2 mM DTT, 10% glycerol
Put plainly: cross-linking; XL-MS: CIP2A and B56α mixed 1:2, RT 60 min, about 0.5 mg/mL; DSS 100 or 500 µM (PBS pH 8.0, 2 mM DTT, 10% glycerol, 30 min 37 °C) or PDH + DMTMM (pH 7, 45 min 37 °C); LC-MS/MS, xQuest.

Assay [4] has as its target T4, GST-CIP2A(1-560) K8A (human, UniProt Q8TCG1 1-560, K8A).
T4 construct: CIP2A, human, residues 1-560, K8A; also called CIP2A(1-560) K8A mutant; source: E. coli BL21, purified (glutathione agarose); not shown: GST, N-terminal, kept
The assay can be described thus: pull-down; GST pull-down on glutathione agarose; 10 pmol of each protein in 150 µL 50 mM Tris HCl pH 7.5, 150 mM NaCl, 2 mM DTT, 0.2% Igepal, 10% glycerol, 1 h 37 °C; Western blot.

In assay [5] the target is T2, GST-CIP2A(1-560). The assay is described as above.
Assay [6] deals with B1. Put plainly: cross-linking; XL-MS: CIP2A and B56α mixed 1:2, RT 60 min, about 0.5 mg/mL; DSS 100 or 500 µM (PBS pH 8.0, 2 mM DTT, 10% glycerol, 30 min 37 °C) or PDH + DMTMM (pH 7, 45 min 37 °C); LC-MS/MS, xQuest.
Assay [7] deals with B1. The assay can be described thus: pull-down; GST pull-down on glutathione agarose; 10 pmol of each protein in 150 µL 50 mM Tris HCl pH 7.5, 150 mM NaCl, 2 mM DTT, 0.2% Igepal, 10% glycerol, 1 h 37 °C; Western blot.
Assay [8] has as its target B1. Put plainly: pull-down; competition: B56α pre-incubated with CIP2A peptide (aa.18-40) 30 min 37 °C, then GST-BubR1(647-720) 1 h 37 °C, 10 pmol each, glutathione bead pull-down, Western blot.

No end group written: not given here. *: point of attachment. Biotin = O=C1N[C@H]2[C@H](CS[C@H]2CCCCC(=O)*)N1

In the case of B1, the binding result in assay [1], in assay [2], in assay [3] and in assay [4] was “binds” throughout.

B2: B56α K181A/K217A/K227A (recombinant) (natural protein)
chain: not shown
notes: PP2A regulatory subunit B56α with K181A, K217A and K227A; also called B56α triple mutant
For the molecule B2, in assay [5], the binding result is “binds”.

B3: CIP2A(1-330) as used for XL-MS (domain or fragment)
chain: not shown
notes: CIP2A, human, residues 1-330; also called CIP2A(1-330) fragment; source: E. coli BL21, purified (glutathione agarose), dialysed into PBS pH 8, 2 mM DTT, 10% glycerol
Take B3: the binding result in assay [6] was “binds”.

B4: B56α Y215Q (natural protein)
chain: not shown
notes: PP2A regulatory subunit B56α with Y215Q; source: purified recombinant
For B4, the binding result in assay [5] was “binds”.

B5: GST-CIP2A(1-330) A24E (domain or fragment)
chain: not shown
notes: CIP2A, human, residues 1-330, A24E; also called A24E mutant; source: E. coli BL21, purified (glutathione agarose); not shown: GST, N-terminal, kept
On to B5, for which, in assay [7], the binding result is “binds”.

B6: CIP2A peptide (aa18-40) (peptide)
peptide: Biotin-KAVKSEANATQLLRHLEVISGQK
notes: CIP2A, human, head domain residues 18-40; also called CIP2A N-terminal head peptide; CIP2A head peptide; source: synthetic peptide (Fmoc solid phase, HPLC purified, 87% purity)
For the molecule B6, the binding result in assay [8] is listed as “binds”.
